Data taken from PMC12578637, “Structure of a distinct β-barrel assembly machinery complex in the Bacteroidota” (Nature Microbiology, 2025).

T1: BtBamI (Bt3727) (B. thetaiotaomicron (endogenous in B. …, UniProt Q8A1D9 22-493, lipid anchor cysteine)); O-glycosylation at 10 sites (Ser67 among them))
T1 sequence (looked up): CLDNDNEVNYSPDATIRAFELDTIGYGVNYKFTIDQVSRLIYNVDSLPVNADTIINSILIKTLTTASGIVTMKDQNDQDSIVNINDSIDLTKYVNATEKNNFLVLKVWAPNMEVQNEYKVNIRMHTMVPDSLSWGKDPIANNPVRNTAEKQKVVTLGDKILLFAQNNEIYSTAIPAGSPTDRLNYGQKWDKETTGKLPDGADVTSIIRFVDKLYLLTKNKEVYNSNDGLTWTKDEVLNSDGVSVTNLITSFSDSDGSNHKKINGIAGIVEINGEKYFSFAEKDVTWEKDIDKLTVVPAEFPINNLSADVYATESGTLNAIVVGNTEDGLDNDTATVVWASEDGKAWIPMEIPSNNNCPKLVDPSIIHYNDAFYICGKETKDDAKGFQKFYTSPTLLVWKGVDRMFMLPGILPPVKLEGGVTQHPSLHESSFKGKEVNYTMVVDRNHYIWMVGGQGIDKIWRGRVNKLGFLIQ

T2: BtBamA (Bt3725), B. thetaiotaomicron BamA with N-terminal His7 tag (B. thetaiotaomicron, UniProt Q8A1E1 20-885)
T2 sequence (looked up): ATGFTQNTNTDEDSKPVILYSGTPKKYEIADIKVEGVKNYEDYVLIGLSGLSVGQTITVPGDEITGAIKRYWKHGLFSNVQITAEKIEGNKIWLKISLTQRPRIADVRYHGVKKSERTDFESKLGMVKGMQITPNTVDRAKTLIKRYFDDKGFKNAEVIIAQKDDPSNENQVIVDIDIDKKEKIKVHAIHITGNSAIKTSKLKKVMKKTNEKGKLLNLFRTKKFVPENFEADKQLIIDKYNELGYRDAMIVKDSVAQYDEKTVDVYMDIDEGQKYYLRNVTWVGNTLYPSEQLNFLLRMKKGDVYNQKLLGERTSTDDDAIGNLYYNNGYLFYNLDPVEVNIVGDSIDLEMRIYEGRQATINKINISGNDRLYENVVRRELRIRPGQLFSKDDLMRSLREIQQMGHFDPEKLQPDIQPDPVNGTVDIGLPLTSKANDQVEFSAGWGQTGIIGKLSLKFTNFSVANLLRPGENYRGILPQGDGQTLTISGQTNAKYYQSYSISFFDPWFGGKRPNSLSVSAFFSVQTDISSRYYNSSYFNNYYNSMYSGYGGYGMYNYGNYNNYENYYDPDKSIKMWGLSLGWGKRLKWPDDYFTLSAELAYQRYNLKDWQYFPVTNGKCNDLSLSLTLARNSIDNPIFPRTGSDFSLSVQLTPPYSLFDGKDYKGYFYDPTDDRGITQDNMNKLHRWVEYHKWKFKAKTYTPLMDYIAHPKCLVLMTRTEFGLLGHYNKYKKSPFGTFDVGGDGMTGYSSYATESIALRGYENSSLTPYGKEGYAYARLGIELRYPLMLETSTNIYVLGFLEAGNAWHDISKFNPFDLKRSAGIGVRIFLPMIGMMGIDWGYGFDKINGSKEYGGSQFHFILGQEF

B1: BtBamH (Bt4306) (natural protein, UniProt Q89ZS0 18-542, looked up)
chain: CDDNTGGLGLGMFPGNDQNIKGKLSTFDVTTESVKTGDIYAKTNIGYIGKFTDETFGTYQAGFLAQLNCPDGLTFPEPYKEVTDASGNVISATGRMVVDDKDPENKDVTFIKDGNQIIGNIRAVELYLWYDSYFGDSLTACRLSVYELGGNGKETLNLDNAYYTDINPEDFYDSQNILGTKAYTAVDLSVKDSIRNLSTYVPSVHIAFKEDIATRVGGNILTAARKAKNADKEFNSQLFREAFQGIYVKSDYGDGTVLYIDQPQMNVVYKCYATDSITGKKLQKKDGSGKDSTYYSYRVFATTREVIQANQLKNDPERIDALIKEDKNTYLKSPAGIFTEATLPISDIQNELTGDTLNAVKLTFTNYNQTGDKKFGMAIPSTVMLVRKKFQDSFFKDNKLSDGVSSYLTSHTSSTNQYVFSNITKLVNACIAEKEEAKKNAGSSWDETKWLQENPDWNKVVLIPVLVTYDSSNTTTGQANIIRIQHDLKPGYVRLKGGSLGKTNPDYKLKLEVISTDFGLTTKSN
modifications: tri-acylated lipid anchor on the N-terminal cysteine; O-glycosylation (Ser309 among the sites)

Tests used:
Assay in all cases: cryo-EM structure; BtBAM complex co-purified through BamAhis from native membranes, in DDM, 8 mg/ml; two 3D classes (3.28 Å and 3.46 Å); AF2 models docked and refined
Settings in all cases: both partners purified
BtBamI (Bt3727) = molecular target: T1, BtBamI (Bt3727)
BtBamH (Bt4306) = molecular target: B1
[1] = molecular target: T2, BtBamA (Bt3725), B. thetaiotaomicron …

Row | Binder | binding result (BtBamI (Bt3727)) | binding result (BtBamH (Bt4306)) | binding result [1]
1 | BtBamJ (Bt3612) (natural protein, UniProt Q8A1P7 20-196, looked up, lipid anchor cysteine; O-glycosylation sites) CSETEEVGKYDNWRARNEAFIDSLANVYATASGRGGLERIEMLTAPGNYIYYKEMEPMTDHVVKAGNPKYTDYVKVYYKGTNILGEYFDGNFKGDNPVVDGKDPSEGDSPTTIFQVSGVITGWGEVLQRMEVGDRWKVYIPWDYAYGSSGTTGILGYSALVFDITLLDFANTEAELK | binds | binds | 
2 | B1 |  |  | binds
